In article PMC9331606 (2022):

What was measured:
[1] = target: NanoLuciferase-tagged rat promyelocytic leukemia protein (rPML); experiment: NanoBRET; conditions: HEK293T cells transfected 24 h; 4 h incubation with Halo ligand; detection time 5 s at 618 nm and 448 nm; parent: est. 2.8; read off a plot
[2] = target: NanoLuciferase-tagged human promyelocytic leukemia protein (hPML) (UniProt P29590); experiment: NanoBRET; conditions: HEK293T cells transfected 24 h; 4 h incubation with Halo ligand; detection time 5 s at 618 nm and 448 nm; parent: est. 23; read off a plot
Sequence of NanoLuciferase-tagged human promyelocytic leukemia protein (hPML) (P29590 whole entry): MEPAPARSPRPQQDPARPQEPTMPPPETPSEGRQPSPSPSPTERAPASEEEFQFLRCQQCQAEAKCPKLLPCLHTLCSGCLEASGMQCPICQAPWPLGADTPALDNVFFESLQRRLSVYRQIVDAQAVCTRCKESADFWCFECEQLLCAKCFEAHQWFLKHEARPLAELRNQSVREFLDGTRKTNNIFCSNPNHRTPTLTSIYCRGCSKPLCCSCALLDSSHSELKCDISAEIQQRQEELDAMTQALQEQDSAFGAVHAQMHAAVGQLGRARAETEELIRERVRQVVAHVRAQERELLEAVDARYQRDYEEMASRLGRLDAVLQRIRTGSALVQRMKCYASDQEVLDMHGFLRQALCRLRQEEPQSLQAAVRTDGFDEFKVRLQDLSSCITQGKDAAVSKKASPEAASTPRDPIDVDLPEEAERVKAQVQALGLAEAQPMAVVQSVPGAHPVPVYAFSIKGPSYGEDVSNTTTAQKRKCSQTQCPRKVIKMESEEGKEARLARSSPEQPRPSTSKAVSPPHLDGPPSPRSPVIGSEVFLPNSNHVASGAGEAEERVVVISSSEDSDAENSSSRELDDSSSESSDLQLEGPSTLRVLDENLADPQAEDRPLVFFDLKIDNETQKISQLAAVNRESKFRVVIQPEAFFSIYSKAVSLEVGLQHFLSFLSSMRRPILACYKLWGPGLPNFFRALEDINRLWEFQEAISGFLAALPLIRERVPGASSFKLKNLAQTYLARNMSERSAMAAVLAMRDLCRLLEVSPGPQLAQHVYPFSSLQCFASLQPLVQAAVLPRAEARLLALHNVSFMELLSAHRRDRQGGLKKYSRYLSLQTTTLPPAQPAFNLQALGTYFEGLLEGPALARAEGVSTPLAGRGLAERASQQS

| Substance | response [1] | response [2] |
| --- | --- | --- |
| Halo-tagged human cytomegalovirus immediate early 1 protein (hIE1) (from UniProt P13202) L174P | 7 mBU | – |
| Halo-tagged human cytomegalovirus immediate early 1 protein (hIE1) (from UniProt P13202) cc172-176 | – | 24 mBU |
| Halo-tagged human cytomegalovirus immediate early 1 protein (hIE1) (from UniProt P13202) hIE1_rH1 | 5.5 mBU | 1.6 mBU |
| Halo-tagged human cytomegalovirus immediate early 1 protein (hIE1) (from UniProt P13202) hIE1_rH1/2 | 6.5 mBU | 3.7 mBU |
| Halo-tagged human cytomegalovirus immediate early 1 protein (hIE1) (from UniProt P13202) hIE1_rH4 | 4 mBU | 4.1 mBU |
| Halo-tagged human cytomegalovirus immediate early 1 protein (hIE1) (from UniProt P13202) hIE1_rH8 | 6.5 mBU | 2.2 mBU |
| Halo-tagged human cytomegalovirus immediate early 1 protein (hIE1) (from UniProt P13202) hIE1_rH10/11 | 6.5 mBU | 2.6 mBU |
